The text below walks through data of paper PMC12133298.

In the series the test system is Rho Y80C (Escherichia coli). Description: EMSA. The note with it: 37 C, 1 mM ATP, 25 mM Tris-Cl pH 8.0, 50 mM KCl, 5 mM MgCl2, 1 mM DTT, 37 C (or 4 C), 15 min, 0.8% agarose 0.5x TBE, 5 nM DNA. For orientation: In EMSA bound probe runs differently from free probe, usually more slowly.

Substance pBR322 yielded a binding signal (fold weaker than WT) of 7.

3.5 kb linear dsDNA: under “5 mM Mg2+”, the Kd (usually a measure of binding affinity in units of concentration) stood at 180 nM.
